Experiments:
[1] = target: GmALMT12/QUAC1 (aluminum-activated malate transporter 12 / quick anion channel 1 from Glycine max) (Glycine max (soybean)); experiment: cryo-EM structure
[2] = target: GmALMT12/QUAC1 cytoplasmic helical domain (CHD, residues 221 to 537), wild type (Glycine max (soybean)); experiment: SEC

stoichiometry N [1]	stoichiometry N [2]	Substance
2	–	GmALMT12/QUAC1 (aluminum-activated malate transporter 12 / quick anion channel 1 from Glycine max) (natural protein)
–	2	GmALMT12/QUAC1 cytoplasmic helical domain (CHD, residues 221 to 537), wild type (domain or fragment)

Reference: publication PMC8890709
